The target of this assay is mouse G-CSF (mGCSF, R&D Systems Cat#414-CS) (mouse) (UniProt P09920). As to the kind of experiment: cell-based or functional assay.
Sequence of UniProt P09920 (P09920 31-208 limits assumed): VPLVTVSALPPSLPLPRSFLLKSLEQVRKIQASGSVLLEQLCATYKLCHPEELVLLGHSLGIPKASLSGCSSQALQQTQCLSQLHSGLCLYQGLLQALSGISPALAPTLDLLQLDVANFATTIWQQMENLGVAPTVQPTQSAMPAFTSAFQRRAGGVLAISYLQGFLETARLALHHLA

Take “soluble hG-CSFR-Fc protein (from UniProt Q99062 25-332) (Fc fusion)”: the IC50, inhibition of mG-CSF proliferation of hG-CSFR BaF3 cells (MTS reduction) came to 0.022 nM.

For the substance “R&D Systems antibody MAB414 (rat anti-mouse G-CSF monoclonal antibody, clone 67604)”, the IC50, inhibition of mG-CSF proliferation of hG-CSFR BaF3 cells (MTS reduction) stood at 0.01 nM.
